Results: the supplement of paper PMC9112550, “Optimization of the antimicrobial peptide Bac7 by deep mutational scanning” (BMC Biology, 2022)

Test system: Escherichia coli TOP10
Test: shrunken log2 fold change of peptide-encoding DNA abundance (4.5 h post-induction vs induction); higher = less antimicrobial activity (less host growth inhibition)
Conditions: time post-induction: 4.5 h; library: site-saturation at positions 5, 18, 19, 20
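Note: peptides expressed intracellularly from a pBAD plasmid library in pooled LB shake-flask culture, induced with 0.3% L-arabinose, DNA abundance read by NGS, three biological replicates, DESeq2 with apeglm shrinkage.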

Row | Sequence | shrunken log2 fold change
1 | RRIRARPPRLPRPRPRPSHIPRP | -0.523
2 | RRIRNRPPRLPRPRPRPCGYPRP | 0.019
3 | RRIRIRPPRLPRPRPRPIIVPRP | -0.666
4 | RRIRWRPPRLPRPRPRPTMFPRP | 0.0589
5 | RRIRYRPPRLPRPRPRPKQVPRP | 0.234
6 | RRIRYRPPRLPRPRPRPCYPPRP | -0.37
7 | RRIRFRPPRLPRPRPRPDGFPRP | 0.015
8 | RRIRSRPPRLPRPRPRPLSCPRP | 0.0284
9 | RRIRRRPPRLPRPRPRPINTPRP | -0.364
10 | RRIRERPPRLPRPRPRPRCTPRP | -0.0287
11 | RRIRKRPPRLPRPRPRPQQLPRP | 0.0814
12 | RRIRYRPPRLPRPRPRPASEPRP | -0.0202
13 | RRIRCRPPRLPRPRPRPWWYPRP | -0.136
14 | RRIRNRPPRLPRPRPRPHWPPRP | 0.0957
15 | RRIRERPPRLPRPRPRPLHFPRP | -0.141
16 | RRIRWRPPRLPRPRPRPERQPRP | 0.353
17 | RRIRNRPPRLPRPRPRPKGNPRP | -0.00941
18 | RRIRTRPPRLPRPRPRPGIDPRP | -0.0352
19 | RRIRMRPPRLPRPRPRPGPTPRP | 1.54
20 | RRIRHRPPRLPRPRPRPNWDPRP | -0.332
21 | RRIRNRPPRLPRPRPRPSLSPRP | -0.205
22 | RRIRTRPPRLPRPRPRPFYNPRP | -0.755
23 | RRIRARPPRLPRPRPRPIVPPRP | 0.0453
24 | RRIRSRPPRLPRPRPRPHMEPRP | -0.376
25 | RRIRQRPPRLPRPRPRPCVCPRP | -0.0231

Row | Sequence | shrunken log2 fold change
26 | RRIRHRPPRLPRPRPRPSIFPRP | -0.704
27 | RRIRARPPRLPRPRPRPANTPRP | 0.0584
28 | RRIRNRPPRLPRPRPRPDYDPRP | -0.0133
29 | RRIRHRPPRLPRPRPRPCDTPRP | -0.214
30 | RRIRMRPPRLPRPRPRPSRPPRP | 0.764
31 | RRIRDRPPRLPRPRPRPHCYPRP | -0.106
32 | RRIRSRPPRLPRPRPRPRNCPRP | 0.5
33 | RRIRWRPPRLPRPRPRPHIFPRP | -0.494
34 | RRIRNRPPRLPRPRPRPGQWPRP | 0.244
35 | RRIRCRPPRLPRPRPRPTKEPRP | -0.0808
36 | RRIRSRPPRLPRPRPRPPWSPRP | 0.25
37 | RRIRQRPPRLPRPRPRPAFIPRP | -0.239
38 | RRIRARPPRLPRPRPRPLFVPRP | 0.0919
39 | RRIRQRPPRLPRPRPRPIGWPRP | 0.256
40 | RRIRIRPPRLPRPRPRPEYLPRP | 0.0178
41 | RRIRPRPPRLPRPRPRPTCEPRP | 0.252
42 | RRIRIRPPRLPRPRPRPNHSPRP | -0.639
43 | RRIRMRPPRLPRPRPRPMICPRP | -0.0412
44 | RRIRRRPPRLPRPRPRPYPFPRP | -0.238
45 | RRIRPRPPRLPRPRPRPHCFPRP | -0.497
46 | RRIRGRPPRLPRPRPRPWMKPRP | 0.0546
47 | RRIRVRPPRLPRPRPRPYCKPRP | -1.15
48 | RRIRFRPPRLPRPRPRPHGNPRP | -0.414
49 | RRIRERPPRLPRPRPRPVNMPRP | -0.139
50 | RRIRARPPRLPRPRPRPTSTPRP | 0.0502

Row | Sequence | shrunken log2 fold change
51 | RRIRIRPPRLPRPRPRPIWGPRP | -0.0934
52 | RRIRSRPPRLPRPRPRPFACPRP | -0.655
53 | RRIRPRPPRLPRPRPRPYRHPRP | -0.483
54 | RRIRARPPRLPRPRPRPQADPRP | -0.119
55 | RRIRLRPPRLPRPRPRPQKCPRP | -0.222
56 | RRIRFRPPRLPRPRPRPHASPRP | -0.259
57 | RRIRTRPPRLPRPRPRPNSTPRP | -0.363
58 | RRIRMRPPRLPRPRPRPLLLPRP | -0.32
59 | RRIRIRPPRLPRPRPRPANCPRP | -1.1
60 | RRIRARPPRLPRPRPRPIVVPRP | -0.14
61 | RRIRVRPPRLPRPRPRPRDWPRP | 0.274
62 | RRIRPRPPRLPRPRPRPCEDPRP | -0.119
63 | RRIRGRPPRLPRPRPRPHKQPRP | 0.0331
64 | RRIRMRPPRLPRPRPRPMFRPRP | -0.0348
65 | RRIRNRPPRLPRPRPRPNSVPRP | -0.0503
66 | RRIRGRPPRLPRPRPRPIRYPRP | -0.0811
67 | RRIRIRPPRLPRPRPRPHAIPRP | -0.21
68 | RRIRYRPPRLPRPRPRPQQFPRP | -0.397
69 | RRIRPRPPRLPRPRPRPSAYPRP | -0.386
70 | RRIRVRPPRLPRPRPRPCQEPRP | -0.68
71 | RRIRKRPPRLPRPRPRPADRPRP | 0.102
72 | RRIRQRPPRLPRPRPRPDQSPRP | -0.222
73 | RRIRCRPPRLPRPRPRPHFRPRP | -0.308
74 | RRIRRRPPRLPRPRPRPMCTPRP | 0.459
75 | RRIRNRPPRLPRPRPRPCWHPRP | -0.0656

Row | Sequence | shrunken log2 fold change
76 | RRIRYRPPRLPRPRPRPVHNPRP | -0.353
77 | RRIRMRPPRLPRPRPRPLARPRP | 0.659
78 | RRIRFRPPRLPRPRPRPLNAPRP | -0.166
79 | RRIRMRPPRLPRPRPRPVQKPRP | 0.069
80 | RRIRGRPPRLPRPRPRPAAFPRP | 0.724
81 | RRIRPRPPRLPRPRPRPRPHPRP | 0.499
82 | RRIRPRPPRLPRPRPRPVEDPRP | 0.0885
83 | RRIRQRPPRLPRPRPRPWWFPRP | -0.0566
84 | RRIRSRPPRLPRPRPRPVYVPRP | -0.525
85 | RRIRIRPPRLPRPRPRPMLDPRP | 0.0726
86 | RRIRVRPPRLPRPRPRPVMAPRP | 0.0266
87 | RRIRQRPPRLPRPRPRPHDLPRP | -0.046
88 | RRIRTRPPRLPRPRPRPTWSPRP | 0.256
89 | RRIRWRPPRLPRPRPRPCMAPRP | 0.312
90 | RRIRFRPPRLPRPRPRPKDQPRP | 0.0707
91 | RRIRPRPPRLPRPRPRPTFFPRP | 0.212
92 | RRIRPRPPRLPRPRPRPCFIPRP | -0.735
93 | RRIRMRPPRLPRPRPRPTSKPRP | 0.0886
94 | RRIRLRPPRLPRPRPRPRKLPRP | -0.0264
95 | RRIRVRPPRLPRPRPRPPCIPRP | -0.00689
96 | RRIRMRPPRLPRPRPRPEHAPRP | 2.54
97 | RRIRVRPPRLPRPRPRPISGPRP | -0.118
98 | RRIRNRPPRLPRPRPRPCFAPRP | 0.0964
99 | RRIRMRPPRLPRPRPRPLFNPRP | -0.439
100 | RRIRRRPPRLPRPRPRPHNKPRP | -0.276

Row | Sequence | shrunken log2 fold change
101 | RRIRYRPPRLPRPRPRPIDFPRP | -0.245
102 | RRIRRRPPRLPRPRPRPISHPRP | -0.215
103 | RRIRIRPPRLPRPRPRPWAHPRP | -0.923
104 | RRIRLRPPRLPRPRPRPPWEPRP | 0.192
105 | RRIRERPPRLPRPRPRPCPAPRP | -0.224
106 | RRIRFRPPRLPRPRPRPCMSPRP | -0.0366
107 | RRIRTRPPRLPRPRPRPIHNPRP | -0.714
108 | RRIRFRPPRLPRPRPRPTEFPRP | -0.217
109 | RRIRERPPRLPRPRPRPWWPPRP | -0.155
110 | RRIRGRPPRLPRPRPRPVHYPRP | 0.109
111 | RRIRNRPPRLPRPRPRPLFYPRP | -0.586
112 | RRIRNRPPRLPRPRPRPEGTPRP | 0.105
113 | RRIRHRPPRLPRPRPRPPQKPRP | 0.0508
114 | RRIRPRPPRLPRPRPRPGGNPRP | -0.0884
115 | RRIRLRPPRLPRPRPRPWFLPRP | -0.449
116 | RRIRCRPPRLPRPRPRPVNIPRP | -0.971
117 | RRIRIRPPRLPRPRPRPPPFPRP | 0.481
118 | RRIRDRPPRLPRPRPRPAVMPRP | -0.00993
119 | RRIRSRPPRLPRPRPRPPSLPRP | -0.119
120 | RRIRIRPPRLPRPRPRPWLQPRP | 0.0391
121 | RRIRYRPPRLPRPRPRPNFFPRP | -0.074
122 | RRIRMRPPRLPRPRPRPNQTPRP | -0.0789
123 | RRIRYRPPRLPRPRPRPPLFPRP | -0.0411
124 | RRIRRRPPRLPRPRPRPPWPPRP | 0.667
125 | RRIRDRPPRLPRPRPRPKHAPRP | 0.222

Row | Sequence | shrunken log2 fold change
126 | RRIRMRPPRLPRPRPRPAVCPRP | 0.103
127 | RRIRHRPPRLPRPRPRPATSPRP | -0.00994
128 | RRIRDRPPRLPRPRPRPIVCPRP | 0.0446
129 | RRIRYRPPRLPRPRPRPAQDPRP | 0.188
130 | RRIRFRPPRLPRPRPRPRVVPRP | 0.298
131 | RRIRSRPPRLPRPRPRPCTWPRP | -0.125
132 | RRIRARPPRLPRPRPRPCIAPRP | -0.0146
133 | RRIRMRPPRLPRPRPRPVDSPRP | 0.216
134 | RRIRFRPPRLPRPRPRPYDTPRP | -0.106
135 | RRIRSRPPRLPRPRPRPLVCPRP | 0.0734
136 | RRIRIRPPRLPRPRPRPGHAPRP | -0.0343
137 | RRIRTRPPRLPRPRPRPVWEPRP | 0.264
138 | RRIRLRPPRLPRPRPRPGYAPRP | 0.119
139 | RRIRSRPPRLPRPRPRPVWLPRP | -0.388
140 | RRIRQRPPRLPRPRPRPSIFPRP | -0.635
141 | RRIRCRPPRLPRPRPRPRFQPRP | 0.234
142 | RRIRDRPPRLPRPRPRPALGPRP | 0.933
143 | RRIRERPPRLPRPRPRPLGDPRP | -0.0627
144 | RRIRNRPPRLPRPRPRPYPPPRP | -0.671
145 | RRIRERPPRLPRPRPRPSGNPRP | -0.636
146 | RRIRFRPPRLPRPRPRPCPLPRP | -0.183
147 | RRIRSRPPRLPRPRPRPLSAPRP | 0.234
148 | RRIRERPPRLPRPRPRPGMCPRP | 0.248
149 | RRIRRRPPRLPRPRPRPLDRPRP | -0.00997
150 | RRIRFRPPRLPRPRPRPDCHPRP | -0.0405
